Source: article PMC7138838, “Gating mechanism of elongating β-ketoacyl-ACP synthases” (Nature Communications, 2020)

B1: FabF (KASII family β-ketoacyl-ACP synthase), wild type (enzyme, E. coli)
chain: MSKRRVVVTGLGMLSPVGNTVESTWKALLAGQSGISLIDHFDTSAYATKFAGLVKDFNCEDIISRKEQRKMDAFIQYGIVAGVQAMQDSGLEITEENATRIGAAIGSGIGGLGLIEENHTSLMNGGPRKISPFFVPSTIVNMVAGHLTIMYGLRGPSISIATACTSGVHNIGHAARIIAYGDADVMVAGGAEKASTPLGVGGFGAARALSTRNDNPQAASRPWDKERDGFVLGDGAGMLVLEEYEHAKKRGAKIYAELVGFGMSSDAYHMTSPPENGAGAALAMANALRDAGIEASQIGYVNAHGTSTPAGDKAEAQAVKTIFGEAASRVLVSSTKSMTGHLLGAAGAVESIYSILALRDQAVPPTINLDNPDEGCDLDFVPHEARQVSGMEYTLCNSFGFGGTNGSLIFKKI
notes: FabF, elongating β-ketoacyl-ACP synthase (KASII family), E. coli; also called wt FabF; source: E. coli BL21, purified (Ni-NTA, thrombin cleavage, Superdex 200); not shown: His8, N-terminal, cleaved

Columns and labels:
[1] = target: FabF F400A (gate removal mutant) (E. coli); experiment: cross-linking; mechanism-based crosslinking, single time point: 40 μM crypto-AcpP, 20 μM FabF, 25 mM Tris, 150 mM NaCl, 10% glycerol, 0.5 mM TCEP, pH 7.4; SDS-PAGE densitometry; efficiency normalised to the average of wt FabF; n = 3
[2] = target: FabF G402A (loop flexibility-modulated mutant) (E. coli); experiment: as above
[3] = target: B1; experiment: as above; conditions: both partners purified
[4] = target: FabF D265A (loop 2 destabilization mutant) (E. coli); experiment: as above
[5] = target: FabF D265N (loop 2 destabilization mutant) (E. coli); experiment: as above
[6] = target: FabF G310F (pocket-blockage mutant) (E. coli); experiment: as above
[7] = target: FabF G310M (pocket-blockage mutant) (E. coli); experiment: as above
[8] = target: B1; experiment: crystal structure; AcpP covalently crosslinked through its pantetheineamide probe (Ser36) to Cys163 of the KS (crypto-AcpP:KS 5:1, 37 °C, 16 h; SEC in 20 mM Tris, 50 mM NaCl, pH 7.4); hanging drop, 6 °C, PEG 8K, 0.1 M sodium cacodylate pH 6.5; conditions: both partners purified
[9] = target: the molecule itself; experiment: as above

| Binder | binding result [3] | crosslinking efficiency normalised to wt FabF [4] | crosslinking efficiency normalised to wt FabF [5] | crosslinking efficiency normalised to wt FabF [6] | crosslinking efficiency normalised to wt FabF [7] | also measured |
| --- | --- | --- | --- | --- | --- | --- |
| C8Cl-AcpP (natural protein, E. coli, Ser36 carries a 4'-phosphopantetheineamide arm with the C8 chloroacrylate (chlorovinyl) probe, acyl carrier protein AcpP, E. coli; also called C8Cl (2b); source: E. coli BL21 (DE3), purified; apofied with AcpH, loaded with the C8 chloroacrylate probe by the one-pot chemoenzymatic method, purified by SEC) MSTIEERVKKIIGEQLGVKQEEVTNNASFVEDLGADSLDTVELVMALEEEFDTEIPDEEAEKITTVQAAIDYINGHQA | binds |  |  |  |  | crosslinking efficiency normalised to wt FabF [1]: 133%; crosslinking efficiency normalised to wt FabF [2]: 24% |
| 1c-AcpP (C2αBr-AcpP) (natural protein, E. coli, Ser36 carries a 4'-phosphopantetheineamide arm with the C2 α-bromo probe 1c, acyl carrier protein AcpP, E. coli; also called C2αBr (1c); crypto-1c-ACP; source: E. coli BL21 (DE3), purified; apofied with AcpH, loaded with probe 1c by the one-pot chemoenzymatic method, purified by SEC) MSTIEERVKKIIGEQLGVKQEEVTNNASFVEDLGADSLDTVELVMALEEEFDTEIPDEEAEKITTVQAAIDYINGHQA | binds | 72% | 77% | 73% | 70% |  |
| crypto-1a-AcpP (C12AcpP) (natural protein, E. coli, Ser36 carries a 4'-phosphopantetheineamide arm with the C12 α-bromo acyl probe 1a, acyl carrier protein AcpP, E. coli; Called 'native AcpP recombinant protein'; no tag is named; In the crosslinked complexes the α-carbon of the probe is bonded to Cys163 of the KS; also called C12αBr-AcpP; C12αBr (1a); source: E. coli BL21 (DE3), purified (isopropanol precipitation, HiTrap Q, Superdex 75); apofied with AcpH, loaded with probe 1a by the one-pot chemoenzymatic method, purified by …) MSTIEERVKKIIGEQLGVKQEEVTNNASFVEDLGADSLDTVELVMALEEEFDTEIPDEEAEKITTVQAAIDYINGHQA |  | 51% | 64% | 33% | 30% | binding result [8]: binds |
| C3Cl-AcpP (natural protein, E. coli, Ser36 carries a 4'-phosphopantetheineamide arm with the C3 chloroacrylate (chlorovinyl) probe, acyl carrier protein AcpP, E. coli; also called C3Cl (2a); source: E. coli BL21 (DE3), purified; apofied with AcpH, loaded with the C3 chloroacrylate probe by the one-pot chemoenzymatic method, purified by SEC) MSTIEERVKKIIGEQLGVKQEEVTNNASFVEDLGADSLDTVELVMALEEEFDTEIPDEEAEKITTVQAAIDYINGHQA | binds | 63% | 73% | 85% | 82% | crosslinking efficiency normalised to wt FabF [2]: 87% |
| crypto-1b-AcpP (C16AcpP) (natural protein, E. coli, Ser36 carries a 4'-phosphopantetheineamide arm with the C16 α-bromo acyl probe 1b, acyl carrier protein AcpP, E. coli; Called 'native AcpP recombinant protein'; no tag is named; In the crosslinked complexes the α-carbon of the probe is bonded to Cys163 of the KS; source: E. coli BL21 (DE3), purified (isopropanol precipitation, HiTrap Q, Superdex 75); apofied with AcpH, loaded with probe 1b by the one-pot chemoenzymatic method, purified by SEC) MSTIEERVKKIIGEQLGVKQEEVTNNASFVEDLGADSLDTVELVMALEEEFDTEIPDEEAEKITTVQAAIDYINGHQA |  |  |  |  |  | binding result [8]: binds |
| FabB (KASI family β-ketoacyl-ACP synthase), wild type (enzyme, E. coli, FabB, elongating β-ketoacyl-ACP synthase (KASI family), E. coli; source: E. coli BL21, purified (Ni-NTA, thrombin cleavage, Superdex 200); not shown: His8, N-terminal, cleaved) MKRAVITGLGIVSSIGNNQQEVLASLREGRSGITFSQELKDSGMRSHVWGNVKLDTTGLIDRKVVRFMSDASIYAFLSMEQAIADAGLSPEAYQNNPRVGLIAGSGGGSPRFQVFGADAMRGPRGLKAVGPYVVTKAMASGVSACLATPFKIHGVNYSISSACATSAHCIGNAVEQIQLGKQDIVFAGGGEELCWEMACEFDAMGALSTKYNDTPEKASRTYDAHRDGFVIAGGGGMVVVEELEHALARGAHIYAEIVGYGATSDGADMVAPSGEGAVRCMKMAMHGVDTPIDYLNSHGTSTPVGDVKELAAIREVFGDKSPAISATKAMTGHSLGAAGVQEAIYSLLMLEHGFIAPSINIEELDEQAAGLNIVTETTDRELTTVMSNSFGFGGTNATLVMRKLKD |  |  |  |  |  | stoichiometry N [9]: 2 |
| B1 |  |  |  |  |  | stoichiometry N [9]: 2 |
